Test results as given in the supplement of paper PMC10065799, “High-throughput profiling of sequence recognition by tyrosine kinases and SH2 domains using bacterial peptide display” (eLife, 2023).

Key:
SHP2-C SH2 = test: SH2 binding enrichment of the phosphorylated peptide, bacterial display (enrichment ratio); higher = better substrate or ligand; peptides without Tyr show the background
c-Src SH2 = test: as above
Grb2 SH2 = Grb2 SH2 (UniProt P62993); test: as above
AncSZ = test: phosphorylation enrichment, bacterial display (enrichment ratio); higher = better substrate or ligand; peptides without Tyr show the background
Jak2 = Jak2 (UniProt O60674); test: as above
MERTK = MERTK (UniProt Q12866); test: as above
c-Abl (mouse) = test: as above
EPHB2 = EPHB2 (UniProt P29323); test: as above
Fer (mouse) = test: as above
c-Src = test: as above
EPHB1 = EPHB1 (UniProt P54762); test: as above
FGFR1 = FGFR1 (UniProt P11362); test: as above
Fyn = Fyn (UniProt P06241); test: as above
Fes = Fes (UniProt P07332); test: as above
Hck = Hck (UniProt P08631); test: as above
FGFR3 = FGFR3 (UniProt P22607); test: as above
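Throughout, for SH2 binding enrichment of the phosphorylated peptide, bacterial display: peptide library displayed on the E. coli surface as eCPX fusions, selected cells deep-sequenced, score is each peptide's frequency after selection divided by its frequency in the input.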
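Throughout, for phosphorylation enrichment, bacterial display: 11-residue human phosphosite peptides and single-mutation variants displayed on the E. coli surface, counted by deep sequencing, each peptide's frequency after selection divided by its frequency in the unselected input library; frequency after pTyr selection over input frequency; kinase dosed for 20-30% of maximal phosphorylation in three min.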

Chain of EPHB2 (P29323 whole entry, looked up): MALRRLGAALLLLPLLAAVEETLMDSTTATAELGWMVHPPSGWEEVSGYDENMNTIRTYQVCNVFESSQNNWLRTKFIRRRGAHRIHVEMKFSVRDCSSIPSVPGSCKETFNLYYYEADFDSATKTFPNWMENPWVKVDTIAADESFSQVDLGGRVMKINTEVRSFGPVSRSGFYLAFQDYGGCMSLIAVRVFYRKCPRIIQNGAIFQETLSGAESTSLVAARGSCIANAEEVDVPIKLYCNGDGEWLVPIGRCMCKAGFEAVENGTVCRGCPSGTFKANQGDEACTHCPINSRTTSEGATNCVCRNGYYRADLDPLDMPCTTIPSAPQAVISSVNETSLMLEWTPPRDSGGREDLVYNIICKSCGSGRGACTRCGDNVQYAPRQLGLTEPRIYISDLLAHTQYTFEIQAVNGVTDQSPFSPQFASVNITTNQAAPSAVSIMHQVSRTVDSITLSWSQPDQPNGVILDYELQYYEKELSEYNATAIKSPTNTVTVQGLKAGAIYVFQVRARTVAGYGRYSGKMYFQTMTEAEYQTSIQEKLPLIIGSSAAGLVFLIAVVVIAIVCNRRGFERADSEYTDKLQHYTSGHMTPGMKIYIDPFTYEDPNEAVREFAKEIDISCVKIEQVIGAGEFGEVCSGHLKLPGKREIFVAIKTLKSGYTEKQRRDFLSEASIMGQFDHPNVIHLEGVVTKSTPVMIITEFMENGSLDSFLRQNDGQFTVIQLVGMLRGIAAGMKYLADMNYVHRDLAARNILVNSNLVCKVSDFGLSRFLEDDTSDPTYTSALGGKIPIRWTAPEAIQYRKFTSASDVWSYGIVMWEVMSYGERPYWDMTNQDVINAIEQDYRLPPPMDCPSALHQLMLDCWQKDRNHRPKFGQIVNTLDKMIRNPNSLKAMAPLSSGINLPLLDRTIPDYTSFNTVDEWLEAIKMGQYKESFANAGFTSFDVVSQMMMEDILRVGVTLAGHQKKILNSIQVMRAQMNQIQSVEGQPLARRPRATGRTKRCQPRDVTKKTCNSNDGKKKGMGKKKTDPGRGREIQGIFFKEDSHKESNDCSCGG
Chain of Fyn (P06241 whole entry, looked up): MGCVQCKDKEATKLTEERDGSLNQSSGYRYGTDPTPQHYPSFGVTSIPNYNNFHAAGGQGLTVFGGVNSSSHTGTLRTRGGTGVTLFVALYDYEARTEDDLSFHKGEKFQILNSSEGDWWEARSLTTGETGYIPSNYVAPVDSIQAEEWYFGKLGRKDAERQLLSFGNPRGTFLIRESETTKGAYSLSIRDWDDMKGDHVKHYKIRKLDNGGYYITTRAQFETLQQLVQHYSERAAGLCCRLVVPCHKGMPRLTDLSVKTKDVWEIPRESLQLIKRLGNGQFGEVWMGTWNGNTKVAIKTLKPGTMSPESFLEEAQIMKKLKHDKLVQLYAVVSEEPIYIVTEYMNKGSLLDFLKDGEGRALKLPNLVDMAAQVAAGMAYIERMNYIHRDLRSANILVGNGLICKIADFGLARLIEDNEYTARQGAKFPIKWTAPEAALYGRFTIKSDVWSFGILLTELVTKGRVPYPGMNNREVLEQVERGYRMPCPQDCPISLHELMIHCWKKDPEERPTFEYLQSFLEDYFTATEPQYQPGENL
Chain of Fes (P07332 whole entry, looked up): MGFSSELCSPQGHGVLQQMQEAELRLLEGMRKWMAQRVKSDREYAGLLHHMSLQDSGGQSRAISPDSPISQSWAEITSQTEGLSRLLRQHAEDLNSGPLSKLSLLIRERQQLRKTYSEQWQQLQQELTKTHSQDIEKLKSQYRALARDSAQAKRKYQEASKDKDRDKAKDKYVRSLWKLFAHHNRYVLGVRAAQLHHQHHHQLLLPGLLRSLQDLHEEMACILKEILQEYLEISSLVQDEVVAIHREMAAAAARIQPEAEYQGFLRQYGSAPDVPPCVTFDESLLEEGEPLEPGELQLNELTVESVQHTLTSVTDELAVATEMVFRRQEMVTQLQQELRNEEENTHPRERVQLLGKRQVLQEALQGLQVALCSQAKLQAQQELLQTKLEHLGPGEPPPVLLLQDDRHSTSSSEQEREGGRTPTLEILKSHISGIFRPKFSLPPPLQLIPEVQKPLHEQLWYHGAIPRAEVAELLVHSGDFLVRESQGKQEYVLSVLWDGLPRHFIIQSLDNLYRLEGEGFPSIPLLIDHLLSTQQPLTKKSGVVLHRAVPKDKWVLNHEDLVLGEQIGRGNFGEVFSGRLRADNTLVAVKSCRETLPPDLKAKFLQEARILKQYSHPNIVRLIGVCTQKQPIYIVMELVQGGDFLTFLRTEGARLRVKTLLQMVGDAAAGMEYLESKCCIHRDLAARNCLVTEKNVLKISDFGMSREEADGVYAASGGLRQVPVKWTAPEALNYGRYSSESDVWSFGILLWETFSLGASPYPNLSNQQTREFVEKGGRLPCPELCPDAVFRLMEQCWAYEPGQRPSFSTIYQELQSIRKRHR
Chain of Grb2 SH2 (P62993 whole entry, looked up): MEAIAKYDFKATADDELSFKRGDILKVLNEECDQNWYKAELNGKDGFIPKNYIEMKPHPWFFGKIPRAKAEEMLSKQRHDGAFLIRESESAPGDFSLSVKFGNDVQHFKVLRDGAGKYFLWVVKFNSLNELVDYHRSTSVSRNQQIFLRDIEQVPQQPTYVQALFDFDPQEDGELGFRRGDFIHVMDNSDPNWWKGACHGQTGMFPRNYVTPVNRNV
Chain of Hck (P08631 whole entry, looked up): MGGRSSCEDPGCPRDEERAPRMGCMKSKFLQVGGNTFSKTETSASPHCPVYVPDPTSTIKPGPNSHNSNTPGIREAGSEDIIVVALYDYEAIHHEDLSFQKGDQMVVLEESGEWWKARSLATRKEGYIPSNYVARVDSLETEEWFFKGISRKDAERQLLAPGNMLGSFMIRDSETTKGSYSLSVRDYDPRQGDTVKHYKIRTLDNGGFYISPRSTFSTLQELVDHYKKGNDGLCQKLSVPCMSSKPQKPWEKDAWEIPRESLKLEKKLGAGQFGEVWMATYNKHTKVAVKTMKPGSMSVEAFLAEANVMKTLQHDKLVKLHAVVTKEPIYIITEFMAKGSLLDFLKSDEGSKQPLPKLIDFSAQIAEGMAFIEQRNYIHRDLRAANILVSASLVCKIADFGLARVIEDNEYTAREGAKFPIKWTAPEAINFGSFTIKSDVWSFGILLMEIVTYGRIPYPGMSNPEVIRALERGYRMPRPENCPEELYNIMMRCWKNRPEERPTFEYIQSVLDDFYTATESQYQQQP
Chain of FGFR3 (P22607 whole entry, looked up, the tested form may be a part): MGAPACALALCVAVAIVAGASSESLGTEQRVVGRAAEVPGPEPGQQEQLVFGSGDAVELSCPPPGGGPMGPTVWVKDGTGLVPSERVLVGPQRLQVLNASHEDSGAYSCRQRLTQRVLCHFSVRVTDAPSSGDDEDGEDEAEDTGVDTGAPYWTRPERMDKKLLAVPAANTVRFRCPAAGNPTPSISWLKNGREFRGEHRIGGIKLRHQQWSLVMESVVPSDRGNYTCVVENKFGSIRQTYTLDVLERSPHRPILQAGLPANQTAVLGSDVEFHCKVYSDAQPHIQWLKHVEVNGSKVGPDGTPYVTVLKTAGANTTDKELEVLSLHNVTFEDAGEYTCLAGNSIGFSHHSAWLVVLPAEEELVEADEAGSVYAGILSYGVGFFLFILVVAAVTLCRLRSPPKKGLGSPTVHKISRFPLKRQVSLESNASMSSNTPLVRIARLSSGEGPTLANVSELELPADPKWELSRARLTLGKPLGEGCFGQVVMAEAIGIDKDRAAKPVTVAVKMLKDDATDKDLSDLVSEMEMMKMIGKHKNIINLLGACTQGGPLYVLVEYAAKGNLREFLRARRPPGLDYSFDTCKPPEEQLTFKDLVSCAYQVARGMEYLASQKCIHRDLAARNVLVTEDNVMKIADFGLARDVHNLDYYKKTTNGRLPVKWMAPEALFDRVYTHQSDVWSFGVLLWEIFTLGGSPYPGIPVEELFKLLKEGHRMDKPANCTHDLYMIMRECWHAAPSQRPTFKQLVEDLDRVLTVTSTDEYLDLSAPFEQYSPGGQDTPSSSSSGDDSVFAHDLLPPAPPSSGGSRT
Chain of MERTK (Q12866 whole entry, looked up): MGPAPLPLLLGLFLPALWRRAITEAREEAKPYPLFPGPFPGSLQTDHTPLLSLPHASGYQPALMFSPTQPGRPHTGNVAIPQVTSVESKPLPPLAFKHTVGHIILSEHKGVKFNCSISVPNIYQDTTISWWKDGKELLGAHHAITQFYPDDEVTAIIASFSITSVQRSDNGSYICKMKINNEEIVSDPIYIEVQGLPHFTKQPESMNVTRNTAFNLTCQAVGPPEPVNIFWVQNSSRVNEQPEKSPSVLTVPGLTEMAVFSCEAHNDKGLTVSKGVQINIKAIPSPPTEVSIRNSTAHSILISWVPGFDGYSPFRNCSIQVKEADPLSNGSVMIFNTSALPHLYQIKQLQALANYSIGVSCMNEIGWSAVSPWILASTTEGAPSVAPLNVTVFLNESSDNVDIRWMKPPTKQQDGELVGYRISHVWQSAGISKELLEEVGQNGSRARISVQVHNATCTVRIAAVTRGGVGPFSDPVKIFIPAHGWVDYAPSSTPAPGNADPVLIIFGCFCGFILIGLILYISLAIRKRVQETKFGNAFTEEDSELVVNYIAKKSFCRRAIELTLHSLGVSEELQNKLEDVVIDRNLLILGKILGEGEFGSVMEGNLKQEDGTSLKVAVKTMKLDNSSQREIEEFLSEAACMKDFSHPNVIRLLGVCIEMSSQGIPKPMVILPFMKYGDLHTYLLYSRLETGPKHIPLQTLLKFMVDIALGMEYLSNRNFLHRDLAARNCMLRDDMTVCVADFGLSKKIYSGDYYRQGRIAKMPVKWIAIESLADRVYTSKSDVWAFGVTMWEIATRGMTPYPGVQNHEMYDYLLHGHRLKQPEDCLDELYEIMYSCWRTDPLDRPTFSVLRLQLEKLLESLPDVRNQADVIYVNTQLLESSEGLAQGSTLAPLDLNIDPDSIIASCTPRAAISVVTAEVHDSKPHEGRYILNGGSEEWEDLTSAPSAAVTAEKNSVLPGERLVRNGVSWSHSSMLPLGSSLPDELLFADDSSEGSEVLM

| Sequence | SH2 binding enrichment (SHP2-C SH2) | SH2 binding enrichment (c-Src SH2) | SH2 binding enrichment (Grb2 SH2) | phosphorylation enrichment (AncSZ) | phosphorylation enrichment (Jak2) | phosphorylation enrichment (MERTK) | phosphorylation enrichment (c-Abl (mouse)) | phosphorylation enrichment (EPHB2) | phosphorylation enrichment (Fer (mouse)) | phosphorylation enrichment (c-Src) | phosphorylation enrichment (EPHB1) | phosphorylation enrichment (FGFR1) | phosphorylation enrichment (Fyn) | phosphorylation enrichment (Fes) | phosphorylation enrichment (Hck) | phosphorylation enrichment (FGFR3) |
| --- | --- | --- | --- | --- | --- | --- | --- | --- | --- | --- | --- | --- | --- | --- | --- | --- |
| LITSVYGCSRQ [TMPRSS6_Y290] | 0.628 | 0.511 | 0.863 | 1.39 | 1.24 | 0.545 | 1.27 | 1 | 0.716 | 1.7 | 0.989 | 1.04 | 1.57 | 1.25 | 1.83 | 1.21 |
| LITTLYIGFLG [KCNQ1_Y267] | 0.808 | 1.02 | 1.06 | 2.41 | 2.33 | 0.989 | 2.22 | 1.12 | 0.929 | 3.29 | 1.19 | 0.712 | 2.11 | 2.46 | 1.51 | 1.89 |
| LLKMMYLMLDN [STAT1_Y203_K201M] | 1.39 | 1.44 | 1.63 | 1.08 | 0.991 | 0.597 | 1.07 | 0.693 | 0.603 | 0.611 | 0.946 | 0.874 | 0.584 | 1.51 | 0.644 | 0.902 |
| LLREWYMIISR [HUWE1_Y4066] | 1.5 | 1.37 | 1.71 | 1.35 | 1.3 | 0.433 | 0.931 | 0.792 | 0.723 | 0.419 | 0.703 | 0.708 | 0.588 | 1.45 | 0.441 | 1.1 |
| LNLDTYQKRLR [PLA2G2D_Y126_R121L] | 0.63 | 0.39 | 0.797 | 0.517 | 0.389 | 0.511 | 0.502 | 0.42 | 0.336 | 0.442 | 0.44 | 0.69 | 0.672 | 0.613 | 0.518 | 0.518 |
| LNNIIYRVERA [CUX2_Y1470] | 1.62 | 0.558 | 1.13 | 1.48 | 1.22 | 0.43 | 0.864 | 0.958 | 0.748 | 1.33 | 0.87 | 0.825 | 0.936 | 1.34 | 0.738 | 0.816 |
| LPHVIYCRLWC [SMAD2_Y128_R133C] | 1.49 | 1.42 | 1.76 | 1.12 | 1.95 | 2.98 | 4.33 | 3.17 | 0.851 | 4.81 | 7.33 | 0.557 | 5.86 | 1.35 | 6.12 | 0.645 |
| LPPREYVVVPS [CAPN1_Y494_G492R] | 1.03 | 1.17 | 0.918 | 2.29 | 1.04 | 0.631 | 0.726 | 4.02 | 1.73 | 0.48 | 3.78 | 2.83 | 1.41 | 2.17 | 1.73 | 2.46 |
| LQPNNYQFCGG [CSF1R_Y969] | 0.889 | 1.44 | 1.24 | 1.49 | 1.24 | 1.6 | 2.74 | 2.2 | 0.627 | 0.632 | 4.08 | 1.04 | 1.14 | 1.18 | 0.86 | 1.09 |
| LRFDVYGGENE [STOX1_Y610_E608D_YF] | 0.798 | 0.523 | 0.943 | 1.09 | 1.22 | 0.405 | 0.793 | 0.644 | 0.594 | 0.528 | 0.596 | 0.509 | 0.539 | 1.29 | 0.498 | 0.629 |
| LRFKQYLRNPP [SHC1_Y315] | 0.591 | 0.477 | 0.786 | 0.957 | 1.17 | 0.564 | 0.847 | 1.8 | 0.623 | 0.642 | 0.562 | 0.865 | 0.551 | 1.11 | 1.04 | 0.767 |
| LRWREYQRQDY [PRKRIP1_Y90_R87W] | 1.32 | 1.26 | 1.46 | 1.12 | 0.997 | 0.409 | 0.737 | 0.761 | 0.376 | 0.486 | 0.439 | 0.626 | 0.574 | 0.957 | 0.453 | 0.585 |
| LSDGPYSNSYE [EPOR_Y485_P488S] | 0.523 | 1.56 | 0.557 | 1.24 | 1.38 | 0.622 | 0.762 | 0.67 | 0.604 | 0.968 | 0.944 | 0.862 | 0.59 | 1.2 | 0.664 | 1.02 |
| LSGVIYVILWK [PMP22_Y153_R157W] | 0.99 | 0.595 | 1.45 | 1.44 | 1.55 | 0.666 | 0.996 | 0.538 | 0.583 | 0.752 | 0.809 | 0.358 | 0.304 | 1.95 | 0.538 | 0.652 |
| LSKDLYLISQM [LARP4_Y141] | 1.08 | 0.413 | 0.912 | 1.78 | 1.28 | 0.703 | 1.06 | 1.29 | 0.918 | 0.639 | 1.59 | 0.933 | 0.828 | 1.63 | 0.836 | 1.41 |
| LSPPVYLTNEW [NRK_Y885_I880L] | 0.715 | 0.58 | 0.959 | 0.935 | 1.54 | 0.616 | 1.21 | 0.851 | 0.636 | 0.909 | 0.736 | 0.702 | 0.587 | 1.26 | 0.651 | 0.758 |
| LSSNLYYRWLT [CNGA3_Y168_P163L] | 1.27 | 0.795 | 1.29 | 6.06 | 13.4 | 20.4 | 12.6 | 8.33 | 8.47 | 6.55 | 7.53 | 21.5 | 6.81 | 3.38 | 15.2 | 17.8 |
